The target of this data set is CVB3 3D (Coxsackievirus B3, UniProt P03313 1724-2185). As to the kind of experiment: ITC.
Chain of CVB3 3D (P03313 1724-2185): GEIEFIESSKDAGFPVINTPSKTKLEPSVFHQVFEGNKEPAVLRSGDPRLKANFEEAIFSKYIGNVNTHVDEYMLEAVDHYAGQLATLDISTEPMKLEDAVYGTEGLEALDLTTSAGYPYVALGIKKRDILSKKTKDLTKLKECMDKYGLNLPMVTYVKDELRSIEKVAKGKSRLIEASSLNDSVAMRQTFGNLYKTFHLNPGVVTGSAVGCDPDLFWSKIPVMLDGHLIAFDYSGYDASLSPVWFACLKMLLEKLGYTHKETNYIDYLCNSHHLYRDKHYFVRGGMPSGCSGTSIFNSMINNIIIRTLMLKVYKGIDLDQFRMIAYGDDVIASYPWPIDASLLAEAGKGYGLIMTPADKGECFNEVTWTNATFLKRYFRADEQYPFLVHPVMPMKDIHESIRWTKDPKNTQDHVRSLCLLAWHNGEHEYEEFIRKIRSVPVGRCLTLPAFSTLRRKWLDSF

B1: CVB3 CL WT (structured_RNA)
RNA: GGUAAAACAGCCUGUGGGUUGAUCCCACCCACAGGGCCCAUUGGGCGCUAGCACUCUGGUAUCACGGUACCUUUGUGCGCCUGUUUUACC
Take B1: the binding result is “no binding”.
